The text below walks through data of paper PMC9785345.

For assay [1], the target named is recombinant SARS-CoV-2 spike receptor-binding domain (rRBD), Wuhan-Hu-1 isolate, residues 319-541 wi (SARS-CoV-2) (UniProt P0DTC2). In words: non-reducing SDS-PAGE.
Assay [2] shares this target. In words: SEC. In general terms: Size exclusion chromatography separates by hydrodynamic size, large species first.
Assay [3] has the same target. The assay is described as follows: non-reducing SDS-PAGE with western blot.

A word on the stoichiometry N: it is the number of molecules, sites or subunits per partner or assembly. Regarding “recombinant SARS-CoV-2 spike receptor-binding domain (rRBD), Wuhan-Hu-1 isolate, residues 319-541 wi (from UniProt P0DTC2 319-541) (domain or fragment)”, the stoichiometry N in assay [1], in assay [2] and in assay [3] was 2 each time. The percent dimer of total rRBD (4 dpi) in assay [3] is 17.9%.
